Data as given in the supplement of paper PMC9233669.
Variants at the floor of the assay were thinned out.

How the values were obtained:
biotinyl-Phe-oxazolone = assay: self-aminoacylation, catalytic enhancement (BFO) (fold over background); higher = more active; k-Seq, kA / k0A0; sequences stand for … in GGGAAUGGAUCCACAUCUACGAAUUC…UUCACUGCAGACUUGACGAAGCUG
Summary of the method: (§1)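 The uncatalyzed rate is the low-activity peak of a bimodal Gaussian fit, and catalytic enhancement is median kA divided by it. The kA values came from pseudo-first-order fits, with 1000 bootstraps, of per-sequence fraction reacted measured by streptavidin capture, triplicate qPCR and Illumina sequencing. Mutagenized RNA pools with a 21-nt variable region (0.43 μM) were reacted with each biotinyl-aminoacyl-oxazolone at 2–1250 μM in 50 μL HEPES/NaCl/KCl/MgCl2/CaCl2 buffer with 5% acetonitrile, pH 6.9–7.0, for 90 minutes at room temperature.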

biotinyl-Ile-oxazolone = assay: self-aminoacylation, catalytic enhancement (BIO) (fold over background); higher = more active; k-Seq, kA / k0A0; sequences stand for … in GGGAAUGGAUCCACAUCUACGAAUUC…UUCACUGCAGACUUGACGAAGCUG
Summary of the method: as §1

biotinyl-Met-oxazolone = assay: self-aminoacylation, catalytic enhancement (BMO) (fold over background); higher = more active; k-Seq, kA / k0A0; sequences stand for … in GGGAAUGGAUCCACAUCUACGAAUUC…UUCACUGCAGACUUGACGAAGCUG
Summary of the method: as §1

biotinyl-Val-oxazolone = assay: self-aminoacylation, catalytic enhancement (BVO) (fold over background); higher = more active; k-Seq, kA / k0A0; sequences stand for … in GGGAAUGGAUCCACAUCUACGAAUUC…UUCACUGCAGACUUGACGAAGCUG
Summary of the method: as §1

biotinyl-Leu-oxazolone = assay: self-aminoacylation, catalytic enhancement (BLO) (fold over background); higher = more active; k-Seq, kA / k0A0; sequences stand for … in GGGAAUGGAUCCACAUCUACGAAUUC…UUCACUGCAGACUUGACGAAGCUG
Summary of the method: as §1

biotinyl-Trp-oxazolone = assay: self-aminoacylation, catalytic enhancement (BWO) (fold over background); higher = more active; k-Seq, kA / k0A0; sequences stand for … in GGGAAUGGAUCCACAUCUACGAAUUC…UUCACUGCAGACUUGACGAAGCUG
Summary of the method: as §1

Sequence | self-aminoacylation (biotinyl-Phe-oxazolone) | self-aminoacylation (biotinyl-Ile-oxazolone) | self-aminoacylation (biotinyl-Met-oxazolone) | self-aminoacylation (biotinyl-Val-oxazolone) | self-aminoacylation (biotinyl-Leu-oxazolone) | self-aminoacylation (biotinyl-Trp-oxazolone)
CUACUUCAAACAUUCGGUGUG [Fam1A.1 aminoacylation ribozyme variant] | 8.08 | 1.4 | 1.82 | 1.51 | 1.73 | 1.39
CUACUUCAAACAUUGGGUCUG [Fam1A.1 aminoacylation ribozyme variant] | 0.555 | 0.914 | 0.944 | 0.977 | 0.868 | 0.716
CUACUUCAAACAUUUGGUCUG [Fam1A.1 aminoacylation ribozyme variant] | 0.677 | 1.13 | 0.873 | 0.984 | 0.802 | 0.678
CUACUUCAAACCAUCGGCCUG [Fam1A.1 aminoacylation ribozyme variant] | 1.51 | 1.82 | 1.63 | 1.94 | 1.45 | 1.71
CUACUUCAAACCAUCGGUCAG [Fam1A.1 aminoacylation ribozyme variant] | 0.853 | 0.67 | 0.609 | 0.771 | 0.488 | 0.762
CUACUUCAAACCAUCGGUGUG [Fam1A.1 aminoacylation ribozyme variant] | 1.24 | 1.08 | 1.11 | 1.1 | 1.52 | 0.938
CUACUUCAAACGAGCGGUCUG [Fam1A.1 aminoacylation ribozyme variant] | 0.761 | 0.8 | 0.943 | 1.02 | 0.689 | 0.477
CUACUUCAAACGAUCGGCCUG [Fam1A.1 aminoacylation ribozyme variant] | 1.59 | 1.55 | 1.33 | 1.66 | 1.96 | 2.08
CUACUUCAAACUAUCGAUCUG [Fam1A.1 aminoacylation ribozyme variant] | 0.945 | 0.736 | 0.57 | 0.728 | 0.596 | 0.369
CUACUUCAAACUAUCGCUCUG [Fam1A.1 aminoacylation ribozyme variant] | 0.781 | 0.732 | 0.609 | 0.786 | 0.678 | 0.664
CUACUUCAAACUAUCGGUUUG [Fam1A.1 aminoacylation ribozyme variant] | 0.88 | 0.944 | 0.748 | 0.961 | 0.829 | 0.697
CUACUUCAAACUAUGGGUCUG [Fam1A.1 aminoacylation ribozyme variant] | 0.588 | 0.917 | 0.789 | 0.813 | 0.922 | 0.592
CUACUUCAAAGAAUAGGUCUG [Fam1A.1 aminoacylation ribozyme variant] | 0.944 | 0.816 | 0.784 | 0.746 | 0.699 | 0.59
CUACUUCAAAGAAUCGGUCGG [Fam1A.1 aminoacylation ribozyme variant] | 1.37 | 0.763 | 0.844 | 0.795 | 1.05 | 1.12
CUACUUCAAAGAAUCGGUGUG [Fam1A.1 aminoacylation ribozyme variant] | 1.04 | 0.994 | 0.905 | 0.803 | 1.28 | 1.02
CUACUUCAAAUAAUCAGUCUG [Fam1A.1 aminoacylation ribozyme variant] | 8.19 | 0.956 | 0.717 | 0.935 | 0.891 | 3.71
CUACUUCAAAUAAUCGGCCUG [Fam1A.1 aminoacylation ribozyme variant] | 14.5 | 1.11 | 0.902 | 0.985 | 1.36 | 12
CUACUUCAAAUCAUCGGUCUG [Fam1A.1 aminoacylation ribozyme variant] | 0.771 | 0.876 | 0.83 | 0.855 | 0.917 | 0.65
CUACUUCAACCAAGCGGUCUG [Fam1A.1 aminoacylation ribozyme variant] | 0.739 | 1.02 | 0.907 | 0.954 | 0.942 | 0.8
CUACUUCAACCAAUCGGUCCG [Fam1A.1 aminoacylation ribozyme variant] | 6.1 | 0.867 | 1.26 | 0.799 | 1.22 | 5.57
CUACUUCAACCUAUCGGUCUG [Fam1A.1 aminoacylation ribozyme variant] | 1.32 | 1.01 | 1.03 | 0.884 | 0.79 | 1.02

Sequence | self-aminoacylation (biotinyl-Phe-oxazolone) | self-aminoacylation (biotinyl-Ile-oxazolone) | self-aminoacylation (biotinyl-Met-oxazolone) | self-aminoacylation (biotinyl-Val-oxazolone) | self-aminoacylation (biotinyl-Leu-oxazolone) | self-aminoacylation (biotinyl-Trp-oxazolone)
CUACUUCAAGCGAUCGGUCUG [Fam1A.1 aminoacylation ribozyme variant] | 0.917 | 0.77 | 0.769 | 0.781 | 0.799 | 0.654
CUACUUCAAGGAAUCGGUCUG [Fam1A.1 aminoacylation ribozyme variant] | 8.77 | 1.54 | 1.64 | 1.42 | 1.97 | 3.64
CUACUUCAAUCAAUCAGUCUG [Fam1A.1 aminoacylation ribozyme variant] | 16.5 | 0.942 | 0.809 | 0.86 | 0.946 | 6.4
CUACUUCAAUCAAUCGGUCUU [Fam1A.1 aminoacylation ribozyme variant] | 19.8 | 1.23 | 1.07 | 1.11 | 1.35 | 10.6
CUACUUCAAUCAAUCGGUGUG [Fam1A.1 aminoacylation ribozyme variant] | 7.44 | 1.18 | 1.19 | 1.27 | 1.83 | 4.96
CUACUUCAAUCAAUCUGUCUG [Fam1A.1 aminoacylation ribozyme variant] | 1.25 | 0.599 | 0.539 | 0.597 | 0.57 | 0.721
CUACUUCAAUCAAUGGGUCUG [Fam1A.1 aminoacylation ribozyme variant] | 0.579 | 0.889 | 0.801 | 0.809 | 0.912 | 0.627
CUACUUCAAUCGAUCGGUCUG [Fam1A.1 aminoacylation ribozyme variant] | 0.776 | 0.687 | 0.707 | 0.754 | 0.634 | 0.977
CUACUUCACACAAGCGGUCUG [Fam1A.1 aminoacylation ribozyme variant] | 0.75 | 1.03 | 0.816 | 0.993 | 0.817 | 1.01
CUACUUCACACAAUCGGUCUU [Fam1A.1 aminoacylation ribozyme variant] | 0.701 | 0.963 | 0.639 | 0.85 | 0.856 | 0.713
CUACUUCACACAAUCUGUCUG [Fam1A.1 aminoacylation ribozyme variant] | 0.903 | 0.655 | 0.558 | 0.699 | 0.573 | 0.513
CUACUUCACACGAUCGGUCUG [Fam1A.1 aminoacylation ribozyme variant] | 0.678 | 0.913 | 0.97 | 0.777 | 0.853 | 0.654
CUACUUCAGACAAACGGUCUG [Fam1A.1 aminoacylation ribozyme variant] | 0.868 | 0.89 | 0.962 | 0.863 | 0.908 | 0.573
CUACUUCAGAUAAUCGGUCUG [Fam1A.1 aminoacylation ribozyme variant] | 0.629 | 0.643 | 0.648 | 0.686 | 0.675 | 0.432
CUACUUCAGGCAAUCGGUCUG [Fam1A.1 aminoacylation ribozyme variant] | 1.02 | 0.94 | 0.853 | 1.24 | 1.42 | 1.27
CUACUUCAGUCAAUCGGUCUG [Fam1A.1 aminoacylation ribozyme variant] | 0.793 | 0.565 | 0.848 | 0.807 | 0.667 | 0.463
CUACUUCAUACAAUCGGGCUG [Fam1A.1 aminoacylation ribozyme variant] | 0.688 | 1.11 | 0.744 | 0.994 | 0.877 | 0.764
CUACUUCAUACAAUCGGUCAG [Fam1A.1 aminoacylation ribozyme variant] | 0.985 | 0.738 | 0.644 | 0.699 | 0.662 | 0.721
CUACUUCAUACAAUCGGUCCG [Fam1A.1 aminoacylation ribozyme variant] | 0.5 | 0.675 | 0.76 | 0.653 | 0.669 | 0.49
CUACUUCAUACAAUCGGUGUG [Fam1A.1 aminoacylation ribozyme variant] | 0.976 | 0.839 | 0.959 | 0.956 | 1.14 | 0.545
CUACUUCAUACAAUCGGUUUG [Fam1A.1 aminoacylation ribozyme variant] | 0.619 | 0.64 | 0.538 | 0.541 | 0.602 | 0.425
